Measurements from patent publication US20140255405A1 (published 2014).

Key:
human IL-6 [1] = target: T1, human IL-6 (human, UniProt P05231 30-212); assay: cell-based or functional assay
[2] = target: T2, Human C1q (Calbiochem, 204876) (human, UniProt P02745 23-245; P02746 28-253; P02747 29-245); assay: ELISA on coated human C1q; antibody preincubated with equimolar IL6 or without IL6; anti-human Fc HRP detection
T2 construct: Bought human C1q coated on ELISA plates; also called complement C1q; complement component C1q
T2 sequence (P02745 23-245 limits assumed, chain 1 of 3): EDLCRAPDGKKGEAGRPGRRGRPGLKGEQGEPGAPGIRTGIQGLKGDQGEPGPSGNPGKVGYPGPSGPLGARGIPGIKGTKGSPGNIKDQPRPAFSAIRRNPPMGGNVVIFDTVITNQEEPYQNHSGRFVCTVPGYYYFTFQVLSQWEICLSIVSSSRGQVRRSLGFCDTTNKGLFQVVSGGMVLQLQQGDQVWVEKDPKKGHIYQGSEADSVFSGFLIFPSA
T2 sequence (P02746 28-253 limits assumed, chain 2 of 3): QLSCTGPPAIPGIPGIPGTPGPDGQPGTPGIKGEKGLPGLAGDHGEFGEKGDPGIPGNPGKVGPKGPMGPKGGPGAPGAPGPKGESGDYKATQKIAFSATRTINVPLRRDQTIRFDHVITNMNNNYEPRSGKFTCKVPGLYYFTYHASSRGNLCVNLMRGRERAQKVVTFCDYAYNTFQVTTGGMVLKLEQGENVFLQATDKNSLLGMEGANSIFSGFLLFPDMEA
T2 sequence (P02747 29-245 limits assumed, chain 3 of 3): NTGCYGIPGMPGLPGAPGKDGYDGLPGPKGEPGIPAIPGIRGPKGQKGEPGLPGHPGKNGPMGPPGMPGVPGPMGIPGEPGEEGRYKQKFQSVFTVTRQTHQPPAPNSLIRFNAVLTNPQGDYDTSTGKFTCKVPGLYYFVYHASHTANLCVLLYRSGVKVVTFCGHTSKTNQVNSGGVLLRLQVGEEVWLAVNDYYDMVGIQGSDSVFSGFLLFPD
Protocol: (§1) Determination of immune complex binding to complement C1q was performed using ELISA. Human C1q (Calbiochem, 204876) was coated onto maxisorp ELISA plates (NUNC, Denmark) at a concentration of 16 microgram/ml in a buffer containing 10 mM Tris HCl, pH 8 for 1 h and washed twice with 1× phosphate buffered saline supplemented with 0.1% Tween-20 (Merck KGaA, Germany, 8.17072.1000) (PBST). Plates were blocked with 2% skimmed milk powder (Roth, Germany T145.3) in PBST for 30 min and again washed twice with PBST. The prepared plates were then incubated with a preformed complex of antibody and IL6, at an equimolar IL6 and antibody binding site concentration of 11 nM, or with 11 nM antibody incubated without IL6, for 30 min.

[3] = target: T2, Human C1q (Calbiochem, 204876); assay: ELISA on coated human C1q; preformed complex of antibody and IL6, 11 nM binding sites; anti-human Fc HRP detection
Protocol: as §1

human IL-6 [4] = target: T1, human IL-6; assay: inferred from IL6-dependent signal in C1q ELISA; antibody preincubated with equimolar IL6 at 11 nM
Protocol: as §1

B1: Mab5 (antibody, human IgG1, kappa, V domains shown)
VH: EVQLVESGGGLVQPGGSLRLSCAASGFSLSNYYVTWVRQAPGKGLEWVGIIYGSDETAYATSAIGRFTISRDNSKNTLYLQMNSLRAEDTAVYYCARDDSSDWDAKFNLWGQGTLVTVSS
VL: AIQMTQSPSSLSASVGDRVTITCQASQSINNELSWYQQKPGKAPKLLIYRASTLASGVPSRFSGSGSGTDFTLTISSLQPDDFATYYCQQGYSLRNIDNAFGGGTKVEIKR
Human IL-6 [1]
  IC50 on 7TD1 cells (pM): 19.9 pM
  IC50 on B9 cells (pM): 26.1 pM

B2: DVD-D5 (antibody)
heavy: not shown
light: DTQMTQSPSSLSASVGDRVTITCRASQSISSYLAWYQQKPGKAPKLLIYAASSLYSGVPSRFSGSGSGTDFTLTISSLQPEDFATYYCQQYSSLPYTFGQGTKLEIKSPAPNLLGGPAIQMTQSPSSLSASVGDRVTITCQASQSINNELSWYQQKPGKAPKLLIYRASTLASGVPSRFSGSGSGTDFTLTISSLQPDDFATYYCQQGYSLRNIDNAFGGGTKVEIKRTVAAPSVFIFPPSDEQLKSGTASVVCLLNNFYPREAKVQWKVDNALQSGNSQESVTEQDSKDSTYSLSSTLTLSKADYEKHKVYACEVTHQGLSSPVTKSFNRGEC
notes: Monospecific control: dual variable domain human IgG1 like DVD-45 but with the Mab4 VL replaced by a germline-like dummy VL
[2]
  binding result: no binding (tested: 11 nM)

B3: DVD-45 (bispecific antibody, human IgG1, kappa)
heavy: not shown
light: DIVLTQSPASLAVSLGQRATISCRASESVGNFGISFMNWFQQKPGQPPKLLIYTASNQGSGVPARFSGSGSGTDFSLNIHPMEEDDSAMYFCQQSKEIPWTFGGGTKLEIKSPAPNLLGGPAIQMTQSPSSLSASVGDRVTITCQASQSINNELSWYQQKPGKAPKLLIYRASTLASGVPSRFSGSGSGTDFTLTISSLQPDDFATYYCQQGYSLRNIDNAFGGGTKVEIKRTVAAPSVFIFPPSDEQLKSGTASVVCLLNNFYPREAKVQWKVDNALQSGNSQESVTEQDSKDSTYSLSSTLTLSKADYEKHKVYACEVTHQGLSSPVTKSFNRGEC
notes: Bispecific, tetravalent human IgG1 dual variable domain IgG: variable domains of Mab4 appended to the N-termini of the variable domains of Mab5
[3]
  binding result: binds
Human IL-6 [1]
  IC50 on 7TD1 cells (pM): 1.3 pM
  IC50 on B9 cells (pM): 2.9 pM

B4: Mab4 (antibody, human IgG1, kappa)
heavy: not shown
light: DIVLTQSPASLAVSLGQRATISCRASESVGNFGISFMNWFQQKPGQPPKLLIYTASNQGSGVPARFSGSGSGTDFSLNIHPMEEDDSAMYFCQQSKEIPWTFGGGTKVEIKRTVAAPSVFIFPPSDEQLKSGTASVVCLLNNFYPREAKVQWKVDNALQSGNSQESVTEQDSKDSTYSLSSTLTLSKADYEKHKVYACEVTHQGLSSPVTKSFNRGEC
Human IL-6 [1]
  IC50 on 7TD1 cells (pM): 2.6 pM
  IC50 on B9 cells (pM): 8.4 pM
[2]
  binding result: no binding (tested: 11 nM)

B5: Mab4-5L5H (bispecific antibody, human IgG1, kappa)
heavy: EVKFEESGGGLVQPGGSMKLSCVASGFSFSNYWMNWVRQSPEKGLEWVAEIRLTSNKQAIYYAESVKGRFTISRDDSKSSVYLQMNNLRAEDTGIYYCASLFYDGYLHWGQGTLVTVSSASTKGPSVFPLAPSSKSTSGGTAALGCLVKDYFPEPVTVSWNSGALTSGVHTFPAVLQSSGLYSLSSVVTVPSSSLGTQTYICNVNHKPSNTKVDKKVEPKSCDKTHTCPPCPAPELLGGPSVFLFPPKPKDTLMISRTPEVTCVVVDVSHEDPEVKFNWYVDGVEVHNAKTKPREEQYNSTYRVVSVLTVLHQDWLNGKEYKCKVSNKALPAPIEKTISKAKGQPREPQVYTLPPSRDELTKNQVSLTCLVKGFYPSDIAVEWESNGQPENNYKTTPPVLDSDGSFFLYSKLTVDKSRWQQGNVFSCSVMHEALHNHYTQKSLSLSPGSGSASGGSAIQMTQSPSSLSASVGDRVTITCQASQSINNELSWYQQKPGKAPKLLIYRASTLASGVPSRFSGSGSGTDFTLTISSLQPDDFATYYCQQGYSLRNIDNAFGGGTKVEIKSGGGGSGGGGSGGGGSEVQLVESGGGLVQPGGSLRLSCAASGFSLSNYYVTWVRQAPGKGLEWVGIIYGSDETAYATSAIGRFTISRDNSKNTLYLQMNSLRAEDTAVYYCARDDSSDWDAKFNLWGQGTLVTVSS
light: DIVLTQSPASLAVSLGQRATISCRASESVGNFGISFMNWFQQKPGQPPKLLIYTASNQGSGVPARFSGSGSGTDFSLNIHPMEEDDSAMYFCQQSKEIPWTFGGGTKVEIKRTVAAPSVFIFPPSDEQLKSGTASVVCLLNNFYPREAKVQWKVDNALQSGNSQESVTEQDSKDSTYSLSSTLTLSKADYEKHKVYACEVTHQGLSSPVTKSFNRGEC
notes: Bispecific, tetravalent human IgG1-scFv fusion: Mab5 scFv (VL-VH) fused to the C-terminus of CH3 of Mab4
[3]
  binding result: binds
Human IL-6 [4]
  binding result: binds
